Target: HLA class II molecules of healthy donors carrying different HLA DR alleles
Assay: cell-based or functional assay

IFNγ producing CD4-positive T-cells, donor 1, after an additional round of stimulation: 0.09 to 0.13%
IFNγ producing CD4-positive T-cells, donor 1, after the third stimulation: 0.05 to 0.1%
maximal frequency of IFNγ producing CD4^+T-cells, donor 2: 0.05%
maximal frequency of IFNγ producing CD4^+T-cells, donor 3: 0.07%
Binder: HSKIIIIKKGHAK [IGFBP3 169-181]
